T1: GST-HEF1 (human, UniProt Q14511 1-834)
T1 sequence: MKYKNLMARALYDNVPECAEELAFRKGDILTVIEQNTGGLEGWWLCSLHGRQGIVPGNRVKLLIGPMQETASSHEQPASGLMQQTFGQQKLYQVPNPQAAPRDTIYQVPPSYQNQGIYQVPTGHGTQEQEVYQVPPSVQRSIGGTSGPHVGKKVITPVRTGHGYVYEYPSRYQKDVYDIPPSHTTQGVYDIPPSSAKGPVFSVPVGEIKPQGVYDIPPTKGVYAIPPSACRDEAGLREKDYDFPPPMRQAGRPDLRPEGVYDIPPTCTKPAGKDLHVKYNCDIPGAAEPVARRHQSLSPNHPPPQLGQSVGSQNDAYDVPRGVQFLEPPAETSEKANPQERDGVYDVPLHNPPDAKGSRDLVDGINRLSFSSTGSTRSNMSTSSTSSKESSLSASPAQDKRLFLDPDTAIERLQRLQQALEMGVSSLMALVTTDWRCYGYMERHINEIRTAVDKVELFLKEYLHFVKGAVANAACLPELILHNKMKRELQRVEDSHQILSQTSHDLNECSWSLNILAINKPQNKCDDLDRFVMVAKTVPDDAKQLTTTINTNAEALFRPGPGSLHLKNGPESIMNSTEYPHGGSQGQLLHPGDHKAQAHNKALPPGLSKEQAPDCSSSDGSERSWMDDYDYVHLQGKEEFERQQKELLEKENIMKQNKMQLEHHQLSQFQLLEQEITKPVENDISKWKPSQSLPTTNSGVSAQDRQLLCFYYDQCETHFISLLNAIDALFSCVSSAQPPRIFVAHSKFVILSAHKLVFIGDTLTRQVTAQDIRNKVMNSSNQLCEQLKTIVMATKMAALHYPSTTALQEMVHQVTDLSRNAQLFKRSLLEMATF


Legend:
GST-APC10 = GST-APC10 (UniProt Q9UM13 1-185); test: pull-down
GST-HEF1 = molecular target: T1, GST-HEF1; test: pull-down

Chain of GST-APC10 (Q9UM13 whole entry): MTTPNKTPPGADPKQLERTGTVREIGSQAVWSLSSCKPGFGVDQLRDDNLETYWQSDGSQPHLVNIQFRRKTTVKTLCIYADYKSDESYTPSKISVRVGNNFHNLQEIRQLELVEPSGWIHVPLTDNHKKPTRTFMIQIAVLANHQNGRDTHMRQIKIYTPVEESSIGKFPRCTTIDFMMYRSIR

Binder	percent of input protein bound (densitometry) (GST-APC10) [%]	percent of input protein bound (densitometry) (GST-HEF1) [%]
Flag-tagged Smad3 d2 (domain or fragment) MSSILPFTPPIVKRLLGWKKGEQNGQEEKWCEKAVKSLVKKLKKTGQLDELEKAITTQNVNTKCITIPRSLDGRLQVSHRKGLPHVIYCRLWRWPDLHSHHELRAMELCEFAFNMKKDEVCVNPYHYQRVETPVLPPVLVPRHTEIPAEFPPLDDYSHSIPENTNFPAGIEPQSNIPETPPPGYLSEDGETSDHQMNHSMDAGSPNLSPNPMSPAHNNLDLQPVTYCEPAFWCSISYYELNQRVGETFHASQPSMTVDGFTDPSNSERFCLGLLSNVNRNAAVELTRRHIGRGVRLYYIGGEVFAECLSDSAIFVQSPNCNQRYGWHPATVCKIPPGCNLKIFNNQEFAALLAQSVNQGFE	95	21
Flag-tagged Smad3 d4 (domain or fragment) MSSILPFTPPIVKRLLGWKKGEQNGQEEKWCEKAVKSLVKKLKKTGQLDELEKAITTQNVNTKCITIPRSLDGRLQVSHRKGLPHVIYCRLWRWPDLHSHHELRAMELCEFAFNMKKDEVCVNPYHYQRVETPVLPPVLVPRHTEIPAEFPPLDDYSHSIPENTNFPAGIEPQSNIPETPPPGYLSEDGETSDHQMNHSMDAGSPNLSPNPMSPAHNNLDLQPVTYCEPAFWCSISYYELNQRVGETFHASQPSMTVDGFTDPSNSERFCLGLLSNVNRNAAVELTRRHIGRGVRLYYIG	17	13
Smad3/Smad1/Smad3 chimera (other) MSSILPFTPPIVKRLLGWKKGEQNGQEEKWCEKAVKSLVKKLKKTGQLDELEKAITTQNVNTKCITIPRSLDGRLQVSHRKGLPHVIYCRLWRWPDLHSHHELRAMELCEFAFNMKKDEVCVNPYHYQRVETPVLPPVLVPRHTEIPAEFPPLDDYSHSIPENTNFPAGIEPQSNIPETPPPGYLSEDGETSDHQMNHSMDAGSPNLSPNPMSPAHNNLDLQPVTYCEPAFWCSISYYELNNRVGEAFHASSTSVLVDGFTDPSNNKNRFCLGLLSNVVNRNAAVELTRRHIGRGVRLYYIGGEVFAECLSDSAIFVQSPNCNQRYGWHPATVCKIPPGCNLKIFNNQEFAALLAQSVNQGFEAVYQLTRMCTIRMSFVKGWGAEYRRQTVTSTPCWIELHLNGPLQWLDKVLTQMGSPSIRCSSV	20	24
Flag-tagged Smad3 d6 (domain or fragment) MSSILPFTPPIVKRLLGWKKGEQNGQEEKWCEKAVKSLVKKLKKTGQLDELEKAITTQNVNTKCITIPRSLDGRLQVSHRKGLPHVIYCRLWRWPDLHSHHELRAMELCEFAFNMKKDEVCVNPYHYQRVETPVLPPVLVPRHTEIPAEFPPLDDYSHSIPENTNFPAGIEPQSNIPETPPPGYLSEDGETSDHQMNHSMDAGSPNLSPNPMSPAHNNLDLQPVTYCEPAFWCSISYYELNQRVGETFHASQPSMTVDGFTDPSNSERFCLGLLSNVNRNAAVELTRRHIGRGVRLYYIGGEVFAECLSDSAIFVQSPNCNQRYGWHPA	34	23
